The values that follow come from patent EP2974737A1.

Numbering of substitutions follows the chain as printed.

B1: SEQ ID NO: 49 (VHH)
VHH: EVQLLESGGGLVQPGGSLRLSCAASGLPFSTKSMGWFRQAPGKGREFVSRISPGGTSRYYGDFVKGRFTISRDNSKNTLYLQMNSLRAEDTAVYYCASGERSTYIGSNYYRTNEYDYWGQGTLVTVSS
B2: SEQ ID NO: 47 (VHH)
VHH: EVQLVESGGGLVQPGGSLRLSCAASGSVFKINVMAWYRQAPGKGRELVAGIISGGSTSYADSVKGRFTISRDNAKNTLYLQMNSLRPEDTAVYYCAFITTESDYDLGRRYWGQGTLVTVSS
B3: SEQ ID NO: 48 (VHH)
VHH: EVQLVESGGGLVQPGGSLRLSCIASGLPFSTKSMGWFRQAPGKEREFVARISPGGTSRYYGDFVKGRFAISRDNAKNTTWLQMNSLKAEDTAVYYCASGERSTYIGSNYYRTNEYDYWGTGTQVTVSS
B4: SEQ ID NO: 43 (VHH)
chain: DVQLVESGGGLVQPGGSLRLSCAASGFILDYYAIGWFRQAPGKEREGVLCIDASDDITYYADSVKGRFTISRDNSKNTVYLQMNSLRPEDTAVYYCATPIGLSSSCLLEYDYDYWGQGTLVTVSSGGGGSGGGSEVQLLESGGGLVQPGGSLRLSCAASGFTFRSFGMSWVRQAPGKGPEWVSSISGSGSDTLYADSVKGRFTISRDNSKNTLYLQMNSLRPEDTAVYYCTIGGSLSRSSQGTLVTVSSA
B5: SEQ ID NO: 45 (VHH)
VHH: EVQLVESGGGLVQAGGSLRLSCAASRSIGRLDRMGWYRHRTGEPRELVATITGGSSINYGDFVKGRFTISIDNAKNTVYLQMNNLKPEDTAVYYCNFNKYVTSRDTWGQGTQVTVSS
B6: SEQ ID NO: 81 (VHH)
VHH: B5 VHH with L11V, A14P, T41P, F62S, A74S, N84S, K86R, Q112L
B7: SEQ ID NO: 70 (VHH)
VHH: B5 VHH with A14P, T41P, F62S, A74S, N84S, K86R, Q112L, T114Q
B8: SEQ ID NO: 78 (VHH)
VHH: B5 VHH with Q13R, A14P, T41P, F62S, A74S, N84S, K86R, Q112L
B9: SEQ ID NO: 66 (VHH)
VHH: B5 VHH with L11S, A14P, T41P, F62S, A74S, N84S, K86R, Q112L
B10: SEQ ID NO: 82 (VHH)
VHH: B5 VHH with A14P, T41P, F62S, A74S, N84S, K86R, P87A, Q112L
B11: SEQ ID NO: 67 (VHH)
VHH: B5 VHH with A14P, T41P, F62S, A74S, N84S, Q112L
B12: SEQ ID NO: 84 (VHH)
VHH: B5 VHH with A14P, T41P, F62S, A74S, N84S, K86R, Q112L, S116G
B13: SEQ ID NO: 69 (VHH)
VHH: B5 VHH with A14P, T41P, F62S, A74S, N84S, K86R
B14: SEQ ID NO: 65 (VHH)
VHH: B5 VHH with T41P, F62S, A74S, N84S, K86R, Q112L
B15: SEQ ID NO: 80 (VHH)
VHH: B5 VHH with A14P, T41P, F62S, A74S, N84S, K86R, Q112L, T114Q, S116G, S117G
B16: SEQ ID NO: 68 (VHH)
VHH: B5 VHH with T41P, F62S, A74S, N84S, K86R
B17: SEQ ID NO: 87 (VHH)
VHH: B5 VHH with L11S, A14P, T41P, F62S, A74S, N84S, K86R, Q112L, S116G, S117G
B18: SEQ ID NO: 71 (VHH)
VHH: B5 VHH with A14P, T41P, F62S, A74S, N84S, K86R, Q112L, S117G
B19: SEQ ID NO: 89 (VHH)
VHH: B5 VHH with L11S, T41P, F62S, A74S, N84S, K86R, Q112L, T114Q, S116G, S117G
B20: SEQ ID NO: 83 (VHH)
VHH: B5 VHH with A14P, T41P, F62S, A74S, N84S, K86R, T90A, Q112L
B21: SEQ ID NO: 85 (VHH)
VHH: EVQLVESGGGSVQPGGSLRLSCAASRSIGRLDRMGWYRHRPGEPRELVATITGGSSINYGDSVKGRFTISIDNSKNTVYLQMNSLRPEDTAVYYCNFNKYVTSRDTWGQGTLVQVGG

monoclonal antibody 21-4-3, sequence (VH, as listed by the source, form in doubt, chain 1 of 2): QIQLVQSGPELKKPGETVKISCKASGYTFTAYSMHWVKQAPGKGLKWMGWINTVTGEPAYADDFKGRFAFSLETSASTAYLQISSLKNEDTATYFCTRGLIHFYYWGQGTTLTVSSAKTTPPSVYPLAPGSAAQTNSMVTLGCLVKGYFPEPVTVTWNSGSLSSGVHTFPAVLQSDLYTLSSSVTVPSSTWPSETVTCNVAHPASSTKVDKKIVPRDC
monoclonal antibody 21-4-3, sequence (VL, as listed by the source, form in doubt, chain 2 of 2): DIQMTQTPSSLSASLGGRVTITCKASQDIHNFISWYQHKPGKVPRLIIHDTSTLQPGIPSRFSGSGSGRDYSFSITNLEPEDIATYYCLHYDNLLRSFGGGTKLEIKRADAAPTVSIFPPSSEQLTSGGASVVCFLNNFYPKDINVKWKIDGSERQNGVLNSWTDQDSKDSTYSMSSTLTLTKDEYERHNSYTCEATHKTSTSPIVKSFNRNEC

This test concerns the target monoclonal antibody 21-4-3. The test can be described thus: SPR, captured 21-4-3, 500 nM; % of Fig. 9 reference.
B1 displayed a binding of 21-4-3, % of Reference Sequence of 4%.
The same measure for B2: 4%; for B3: 3%; for B4: 3%.
For B5, the binding of 21-4-3, % of Reference Sequence was 22%.
The same measure for B6: 75%; for B7: 106%; for B8: 1%.
As to B9, the binding of 21-4-3, % of Reference Sequence turned out to be 48%.
The figure for B10 is 56%.
The figure for B11 is 101%; for B12 it is 91%.
The figure for B13 is 106%; for B14 it is 23%.
For B15, the binding of 21-4-3, % of Reference Sequence worked out at 51%.
The same measure for B16: 26%; for B17: 41%.
In turn, B18 gave a binding of 21-4-3, % of Reference Sequence of 44%.
B19 gave a binding of 21-4-3, % of Reference Sequence of 2%.
For B20, the binding of 21-4-3, % of Reference Sequence came to 79%.
Regarding B21, the binding of 21-4-3, % of Reference Sequence was determined as 32%.
